Reference: the supplement of paper PMC10065799, “High-throughput profiling of sequence recognition by tyrosine kinases and SH2 domains using bacterial peptide display” (eLife, 2023)

Tests used:
[1] = system: AncSZ; assay: phosphorylation enrichment, bacterial display (enrichment ratio); higher = better substrate or ligand; peptides without Tyr show the background
[2] = biological target: EPHB1 (UniProt P54762); assay: as above
[3] = biological target: EPHB2 (UniProt P29323); assay: as above
[4] = biological target: FGFR1 (UniProt P11362); assay: as above
[5] = biological target: FGFR3 (UniProt P22607); assay: as above
[6] = system: Fer (mouse); assay: as above
[7] = biological target: Fes (UniProt P07332); assay: as above
[8] = biological target: Fyn (UniProt P06241); assay: as above
[9] = biological target: Hck (UniProt P08631); assay: as above
[10] = biological target: Jak2 (UniProt O60674); assay: as above
[11] = biological target: MERTK (UniProt Q12866); assay: as above
[12] = system: c-Abl (mouse); assay: as above
[13] = system: c-Src; assay: as above
[14] = biological target: Grb2 SH2 (UniProt P62993); assay: SH2 binding enrichment of the phosphorylated peptide, bacterial display (enrichment ratio); higher = better substrate or ligand; peptides without Tyr show the background
[15] = biological target: SHP2-C SH2; assay: as above
[16] = biological target: c-Src SH2; assay: as above
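Throughout, for SH2 binding enrichment of the phosphorylated peptide, bacterial display: peptide library displayed on the E. coli surface as eCPX fusions, selected cells deep-sequenced, score is each peptide's frequency after selection divided by its frequency in the input.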
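Throughout, for phosphorylation enrichment, bacterial display: 11-residue human phosphosite peptides and single-mutation variants displayed on the E. coli surface, counted by deep sequencing, each peptide's frequency after selection divided by its frequency in the unselected input library; frequency after pTyr selection over input frequency; kinase dosed for 20-30% of maximal phosphorylation in three min.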

MERTK, sequence (Q12866 whole entry, looked up): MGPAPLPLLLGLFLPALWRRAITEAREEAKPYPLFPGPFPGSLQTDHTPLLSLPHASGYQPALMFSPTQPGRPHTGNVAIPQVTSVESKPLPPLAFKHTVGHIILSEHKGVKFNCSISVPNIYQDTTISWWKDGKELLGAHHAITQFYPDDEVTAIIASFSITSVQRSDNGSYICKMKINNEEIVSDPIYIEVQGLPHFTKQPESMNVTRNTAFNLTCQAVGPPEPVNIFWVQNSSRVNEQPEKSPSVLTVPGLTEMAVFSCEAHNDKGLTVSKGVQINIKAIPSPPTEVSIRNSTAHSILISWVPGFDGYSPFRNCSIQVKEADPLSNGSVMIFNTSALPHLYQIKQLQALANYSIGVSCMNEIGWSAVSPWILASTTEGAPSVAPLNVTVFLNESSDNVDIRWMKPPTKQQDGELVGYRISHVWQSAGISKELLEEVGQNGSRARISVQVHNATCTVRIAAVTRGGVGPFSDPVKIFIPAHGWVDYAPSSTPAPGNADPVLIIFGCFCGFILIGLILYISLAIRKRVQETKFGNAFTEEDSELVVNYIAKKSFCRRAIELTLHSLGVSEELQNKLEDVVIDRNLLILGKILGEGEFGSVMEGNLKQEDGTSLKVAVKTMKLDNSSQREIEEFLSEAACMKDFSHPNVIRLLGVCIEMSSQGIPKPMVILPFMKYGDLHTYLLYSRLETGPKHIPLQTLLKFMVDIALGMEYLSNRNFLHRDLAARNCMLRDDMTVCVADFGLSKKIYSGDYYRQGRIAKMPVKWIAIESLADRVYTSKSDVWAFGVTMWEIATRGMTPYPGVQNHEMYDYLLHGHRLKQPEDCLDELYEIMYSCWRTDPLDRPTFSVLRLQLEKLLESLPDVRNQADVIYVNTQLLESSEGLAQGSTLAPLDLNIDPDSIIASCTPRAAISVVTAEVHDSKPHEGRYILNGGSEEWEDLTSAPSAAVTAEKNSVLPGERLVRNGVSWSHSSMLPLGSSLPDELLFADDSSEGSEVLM
Hck, sequence (P08631 whole entry, looked up): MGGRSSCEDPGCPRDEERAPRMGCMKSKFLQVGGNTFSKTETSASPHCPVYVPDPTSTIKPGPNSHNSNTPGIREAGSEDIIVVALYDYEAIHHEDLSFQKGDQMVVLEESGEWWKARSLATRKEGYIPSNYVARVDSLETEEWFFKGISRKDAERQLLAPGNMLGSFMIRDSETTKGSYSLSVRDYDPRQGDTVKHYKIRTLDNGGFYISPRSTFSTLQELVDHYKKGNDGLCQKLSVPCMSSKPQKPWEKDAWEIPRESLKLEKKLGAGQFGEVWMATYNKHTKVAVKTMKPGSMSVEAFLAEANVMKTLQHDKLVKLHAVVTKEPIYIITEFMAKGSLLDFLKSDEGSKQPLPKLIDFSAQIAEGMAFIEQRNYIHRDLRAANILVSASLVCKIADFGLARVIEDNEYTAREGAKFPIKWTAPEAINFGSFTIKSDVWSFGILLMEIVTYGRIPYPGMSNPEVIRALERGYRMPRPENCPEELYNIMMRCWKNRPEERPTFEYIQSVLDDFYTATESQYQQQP
FGFR3, sequence (P22607 whole entry, looked up): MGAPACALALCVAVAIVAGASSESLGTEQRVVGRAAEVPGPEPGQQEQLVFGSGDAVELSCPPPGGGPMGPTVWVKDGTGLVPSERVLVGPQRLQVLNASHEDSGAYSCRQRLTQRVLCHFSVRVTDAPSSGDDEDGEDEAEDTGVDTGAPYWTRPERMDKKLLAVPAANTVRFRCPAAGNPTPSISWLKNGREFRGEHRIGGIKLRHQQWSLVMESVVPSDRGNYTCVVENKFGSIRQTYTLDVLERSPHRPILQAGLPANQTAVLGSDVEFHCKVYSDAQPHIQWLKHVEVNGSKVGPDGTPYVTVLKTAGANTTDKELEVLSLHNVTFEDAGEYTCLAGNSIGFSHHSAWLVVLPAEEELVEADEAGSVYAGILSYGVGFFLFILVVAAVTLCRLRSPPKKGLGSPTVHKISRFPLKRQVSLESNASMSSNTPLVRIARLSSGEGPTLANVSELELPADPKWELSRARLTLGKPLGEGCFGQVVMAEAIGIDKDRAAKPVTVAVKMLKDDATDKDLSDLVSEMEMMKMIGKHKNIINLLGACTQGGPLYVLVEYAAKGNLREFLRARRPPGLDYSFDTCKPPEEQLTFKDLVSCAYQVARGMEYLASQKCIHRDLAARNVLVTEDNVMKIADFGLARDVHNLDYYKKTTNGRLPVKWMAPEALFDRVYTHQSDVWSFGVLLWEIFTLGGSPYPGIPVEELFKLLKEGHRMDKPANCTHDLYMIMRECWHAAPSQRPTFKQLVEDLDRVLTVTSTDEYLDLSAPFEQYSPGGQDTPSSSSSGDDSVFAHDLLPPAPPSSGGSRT
Fyn, sequence (P06241 whole entry, looked up): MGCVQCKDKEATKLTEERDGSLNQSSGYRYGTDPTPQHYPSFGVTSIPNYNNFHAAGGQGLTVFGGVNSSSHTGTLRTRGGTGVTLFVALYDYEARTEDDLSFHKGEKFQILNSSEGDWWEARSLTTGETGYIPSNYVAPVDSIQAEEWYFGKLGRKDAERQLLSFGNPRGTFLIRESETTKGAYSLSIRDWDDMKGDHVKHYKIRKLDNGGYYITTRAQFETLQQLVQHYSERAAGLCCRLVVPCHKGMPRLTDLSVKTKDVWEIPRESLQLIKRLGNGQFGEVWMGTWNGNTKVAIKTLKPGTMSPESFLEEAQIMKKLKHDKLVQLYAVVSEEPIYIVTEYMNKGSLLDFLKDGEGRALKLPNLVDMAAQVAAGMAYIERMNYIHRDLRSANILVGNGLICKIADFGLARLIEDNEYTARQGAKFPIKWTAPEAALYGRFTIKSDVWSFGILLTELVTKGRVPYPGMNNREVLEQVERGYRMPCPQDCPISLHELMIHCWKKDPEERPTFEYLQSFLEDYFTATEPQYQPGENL
FGFR1, sequence (P11362 whole entry, looked up): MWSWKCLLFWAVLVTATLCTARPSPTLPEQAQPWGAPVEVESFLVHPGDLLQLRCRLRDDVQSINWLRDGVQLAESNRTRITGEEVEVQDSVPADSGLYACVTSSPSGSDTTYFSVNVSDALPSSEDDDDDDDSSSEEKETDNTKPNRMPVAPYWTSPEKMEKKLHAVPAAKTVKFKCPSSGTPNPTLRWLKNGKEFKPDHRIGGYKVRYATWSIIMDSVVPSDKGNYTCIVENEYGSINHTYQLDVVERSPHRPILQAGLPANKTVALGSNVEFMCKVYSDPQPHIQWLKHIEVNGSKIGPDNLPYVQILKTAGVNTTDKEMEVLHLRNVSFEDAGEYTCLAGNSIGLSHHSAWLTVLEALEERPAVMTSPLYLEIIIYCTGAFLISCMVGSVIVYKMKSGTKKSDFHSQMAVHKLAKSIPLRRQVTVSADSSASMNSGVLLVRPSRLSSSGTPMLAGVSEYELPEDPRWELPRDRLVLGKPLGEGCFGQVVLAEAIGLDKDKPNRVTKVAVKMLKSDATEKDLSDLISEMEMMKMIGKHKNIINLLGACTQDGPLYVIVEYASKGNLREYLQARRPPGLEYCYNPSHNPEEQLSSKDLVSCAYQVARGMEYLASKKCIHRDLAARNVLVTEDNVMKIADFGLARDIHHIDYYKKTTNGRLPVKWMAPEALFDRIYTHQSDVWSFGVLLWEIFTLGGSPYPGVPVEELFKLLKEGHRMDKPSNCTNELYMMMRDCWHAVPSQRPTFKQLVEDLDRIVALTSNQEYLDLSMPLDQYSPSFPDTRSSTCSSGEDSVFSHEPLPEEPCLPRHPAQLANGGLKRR
Fes, sequence (P07332 whole entry, looked up): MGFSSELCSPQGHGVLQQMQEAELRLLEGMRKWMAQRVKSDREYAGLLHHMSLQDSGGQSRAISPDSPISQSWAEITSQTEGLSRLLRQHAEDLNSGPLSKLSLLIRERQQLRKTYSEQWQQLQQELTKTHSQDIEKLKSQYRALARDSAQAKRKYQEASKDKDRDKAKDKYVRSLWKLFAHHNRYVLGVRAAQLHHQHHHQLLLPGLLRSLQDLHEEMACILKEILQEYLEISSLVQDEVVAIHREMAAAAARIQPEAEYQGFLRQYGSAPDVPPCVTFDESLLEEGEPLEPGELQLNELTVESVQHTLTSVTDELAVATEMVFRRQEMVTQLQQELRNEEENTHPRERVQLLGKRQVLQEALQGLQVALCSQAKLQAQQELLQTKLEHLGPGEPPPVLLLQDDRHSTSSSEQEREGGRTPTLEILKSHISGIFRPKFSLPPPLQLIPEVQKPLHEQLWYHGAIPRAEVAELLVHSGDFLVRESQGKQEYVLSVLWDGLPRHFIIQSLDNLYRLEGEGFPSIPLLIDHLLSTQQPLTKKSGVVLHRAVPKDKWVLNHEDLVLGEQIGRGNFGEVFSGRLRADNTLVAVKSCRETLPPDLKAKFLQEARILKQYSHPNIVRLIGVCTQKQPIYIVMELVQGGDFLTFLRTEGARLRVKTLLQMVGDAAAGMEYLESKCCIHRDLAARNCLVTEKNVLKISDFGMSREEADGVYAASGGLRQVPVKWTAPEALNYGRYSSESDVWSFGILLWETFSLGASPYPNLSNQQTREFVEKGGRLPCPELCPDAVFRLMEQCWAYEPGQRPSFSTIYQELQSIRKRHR
Grb2 SH2, sequence (P62993 whole entry, looked up): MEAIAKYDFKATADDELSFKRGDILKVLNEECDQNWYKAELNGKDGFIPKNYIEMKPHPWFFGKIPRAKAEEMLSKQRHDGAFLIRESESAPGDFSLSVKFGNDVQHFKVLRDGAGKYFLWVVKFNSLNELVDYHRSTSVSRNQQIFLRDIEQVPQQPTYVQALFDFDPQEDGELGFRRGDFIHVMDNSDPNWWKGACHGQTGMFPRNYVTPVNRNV

| Sequence | phosphorylation enrichment [1] | phosphorylation enrichment [2] | phosphorylation enrichment [3] | phosphorylation enrichment [4] | phosphorylation enrichment [5] | phosphorylation enrichment [6] | phosphorylation enrichment [7] | phosphorylation enrichment [8] | phosphorylation enrichment [9] | phosphorylation enrichment [10] | phosphorylation enrichment [11] | phosphorylation enrichment [12] | phosphorylation enrichment [13] | SH2 binding enrichment [14] | SH2 binding enrichment [15] | SH2 binding enrichment [16] |
| --- | --- | --- | --- | --- | --- | --- | --- | --- | --- | --- | --- | --- | --- | --- | --- | --- |
| SVVVPYEPLEV [TP53_Y220_P223L] | 1.19 | 0.562 | 0.602 | 0.531 | 0.836 | 0.934 | 1.23 | 0.587 | 0.533 | 0.947 | 0.489 | 0.697 | 0.46 | 0.849 | 0.598 | 2.45 |
| SWDKRYCEAGC [ITGA2B_Y197_F202C] | 0.859 | 0.446 | 0.41 | 0.507 | 0.541 | 0.383 | 0.887 | 0.454 | 0.417 | 0.641 | 0.401 | 0.984 | 0.357 | 0.957 | 1.23 | 0.651 |
| TDGIAYEFRVI | 1.46 | 0.659 | 0.603 | 0.507 | 0.852 | 0.843 | 1.34 | 0.514 | 0.655 | 1.32 | 0.495 | 0.854 | 0.527 | 0.753 | 0.642 | 0.47 |
| TDTAAYEERLR [SPTB_Y474_V478L] | 0.936 | 0.49 | 0.648 | 0.668 | 0.71 | 0.458 | 0.914 | 0.67 | 0.516 | 0.742 | 0.482 | 0.48 | 0.478 | 0.849 | 0.924 | 0.504 |
| TEAEPYYCSLR [NPHS1_Y1138_R1140C] | 1.81 | 1.5 | 1.43 | 1.49 | 1.47 | 1.8 | 1.5 | 4.22 | 4.2 | 1.4 | 2.78 | 1.18 | 3.96 | 0.893 | 0.73 | 1.22 |
| TEQDPYNSIVR [MMUT_Y364_N366S] | 1.03 | 0.496 | 0.616 | 0.697 | 0.665 | 0.488 | 1.01 | 0.494 | 0.551 | 0.889 | 0.4 | 0.661 | 0.593 | 0.952 | 0.711 | 1.48 |
| TESALYGCTVL [KIAA1804_Y724] | 1.13 | 0.686 | 0.885 | 0.559 | 1.15 | 4.71 | 1.27 | 5.57 | 4.05 | 1.12 | 1.46 | 1.04 | 4.74 | 0.82 | 0.916 | 0.552 |
| TESNNYIYKTL [FAM83B_Y637] | 0.729 | 0.483 | 0.44 | 0.625 | 0.64 | 0.512 | 0.696 | 1.31 | 0.99 | 0.63 | 0.535 | 0.559 | 1.28 | 0.738 | 1.65 | 0.523 |
| TESNNYIYTTL [FAM83B_Y637_K640T] | 1.03 | 2.3 | 1.15 | 2.74 | 1.92 | 2.64 | 0.898 | 8.53 | 7.3 | 0.774 | 5.09 | 0.692 | 7.09 | 0.752 | 0.8 | 0.579 |
| TFEFRYLEDRD [CNOT3_Y746_YF] | 1.35 | 0.676 | 0.756 | 0.599 | 0.826 | 0.606 | 1.37 | 0.686 | 0.67 | 1.17 | 0.398 | 0.762 | 0.591 | 1.08 | 0.96 | 0.584 |
| TFLRTYTDTMQ [TSPAN7_Y124_A127T] | 0.68 | 0.527 | 0.491 | 0.486 | 0.497 | 0.501 | 0.76 | 0.464 | 0.403 | 0.687 | 0.391 | 0.69 | 0.425 | 0.995 | 0.454 | 0.591 |
| TGDFGYRAPGY [TNS2_Y668] | 0.545 | 0.387 | 0.413 | 0.415 | 0.435 | 0.332 | 0.546 | 0.477 | 0.376 | 0.557 | 0.31 | 0.533 | 0.441 | 0.747 | 0.619 | 0.425 |
| TGVWDYIHVVD [GALE_Y241_R239W] | 1.43 | 0.756 | 0.588 | 0.684 | 0.916 | 0.493 | 1.43 | 0.47 | 0.566 | 1.39 | 0.433 | 0.966 | 0.471 | 0.746 | 0.552 | 0.383 |
| TGYRPYVCPFD [YY1_Y383_D380Y] | 1.16 | 0.753 | 0.706 | 0.621 | 0.951 | 0.574 | 1.33 | 0.583 | 0.525 | 1.04 | 0.551 | 0.808 | 0.412 | 0.797 | 0.552 | 0.611 |
| TKEPKYEGAGS [KIAA1210_Y1615] | 0.614 | 0.368 | 0.337 | 0.403 | 0.385 | 0.378 | 0.542 | 0.339 | 0.372 | 0.5 | 0.326 | 0.496 | 0.315 | 0.863 | 0.719 | 0.597 |
| TKVVHYRKWIK [KLK2_Y249] | 0.632 | 0.483 | 0.318 | 0.375 | 0.432 | 0.373 | 0.614 | 0.382 | 0.443 | 0.415 | 0.379 | 0.462 | 0.595 | 1.12 | 0.912 | 0.558 |
| TLLERYGMTEI [ACSF3_Y355] | 0.621 | 0.415 | 0.516 | 0.404 | 0.564 | 0.42 | 0.863 | 0.387 | 0.392 | 0.565 | 0.342 | 0.516 | 0.418 | 0.907 | 0.866 | 0.462 |

| Sequence | phosphorylation enrichment [1] | phosphorylation enrichment [2] | phosphorylation enrichment [3] | phosphorylation enrichment [4] | phosphorylation enrichment [5] | phosphorylation enrichment [6] | phosphorylation enrichment [7] | phosphorylation enrichment [8] | phosphorylation enrichment [9] | phosphorylation enrichment [10] | phosphorylation enrichment [11] | phosphorylation enrichment [12] | phosphorylation enrichment [13] | SH2 binding enrichment [14] | SH2 binding enrichment [15] | SH2 binding enrichment [16] |
| --- | --- | --- | --- | --- | --- | --- | --- | --- | --- | --- | --- | --- | --- | --- | --- | --- |
| TLNVRYESVQA [CEACAM7_Y236] | 0.757 | 0.44 | 0.415 | 0.451 | 0.617 | 0.59 | 0.745 | 0.434 | 0.487 | 0.755 | 0.371 | 0.504 | 0.415 | 0.9 | 1.52 | 7.18 |
| TLQNMYGCDVG [HLA-B_Y123_S121N] | 0.886 | 0.702 | 0.581 | 0.545 | 0.669 | 0.64 | 1.2 | 0.586 | 0.625 | 0.989 | 0.446 | 0.756 | 0.601 | 1.01 | 0.765 | 0.643 |
| TLSGIYQYNIA [FOXL2_Y81_I84N] | 1.32 | 1.82 | 1.15 | 0.752 | 0.701 | 13.1 | 0.963 | 4.61 | 4.79 | 0.951 | 9.86 | 1.06 | 6.54 | 0.817 | 1.07 | 1.33 |
| TNDRLYLRSLE [MTM1_Y71_Y68D] | 0.881 | 0.514 | 0.452 | 0.438 | 0.503 | 0.411 | 0.978 | 0.458 | 0.443 | 0.937 | 0.376 | 0.651 | 0.535 | 0.855 | 0.6 | 0.616 |
| TNRSFYFKPSL [NUP153_Y382_V381F] | 0.988 | 0.646 | 0.555 | 0.954 | 0.63 | 0.406 | 0.993 | 0.428 | 0.533 | 3.54 | 2.6 | 1.35 | 0.491 | 1.04 | 0.774 | 0.806 |
| TPSGNYVACGG [GNB1_Y111_A106T] | 0.614 | 0.771 | 0.704 | 0.555 | 0.436 | 0.415 | 0.8 | 0.447 | 0.488 | 0.602 | 0.516 | 0.677 | 0.783 | 1.14 | 1.25 | 1.73 |
| TPTYPYLLPKS [PLD2_Y580] | 0.527 | 0.29 | 0.349 | 0.63 | 0.505 | 0.286 | 0.599 | 0.452 | 0.441 | 0.639 | 0.564 | 0.564 | 0.581 | 0.768 | 0.899 | 0.62 |
| TRSFKCLLLSM [NF1_Y491_Y491C_YF] | 0.969 | 0.551 | 0.581 | 0.531 | 0.609 | 0.496 | 1.08 | 0.474 | 0.492 | 1.09 | 0.444 | 0.713 | 0.4 | 1.11 | 0.787 | 0.912 |
| TSQSQYFSFRE [CCDC170_Y323] | 0.745 | 0.315 | 0.368 | 1.62 | 1.49 | 0.461 | 0.891 | 3.07 | 1.72 | 1.29 | 0.818 | 0.604 | 4.89 | 1.15 | 0.999 | 0.796 |
| TTICKYSTPME [GUCY2C_Y839] | 0.798 | 0.395 | 0.488 | 0.608 | 0.567 | 0.351 | 0.801 | 0.35 | 0.413 | 0.756 | 0.446 | 0.63 | 0.474 | 0.924 | 0.967 | 1.05 |
| TTKGAYSLSIR [YES1_Y194] | 0.656 | 0.369 | 0.414 | 0.49 | 0.395 | 0.383 | 0.681 | 0.406 | 0.445 | 0.614 | 0.548 | 0.669 | 0.567 | 1.36 | 0.434 | 0.792 |
| TTPGPYRSIFF [MPG_Y71_YF] | 1.07 | 0.493 | 0.546 | 0.551 | 1.07 | 0.368 | 0.923 | 0.514 | 0.521 | 0.626 | 0.663 | 0.706 | 0.728 | 0.997 | 3.79 | 0.688 |
| TVMGLYQKSSL [MYH7_Y609_V606M] | 0.824 | 0.657 | 0.516 | 0.412 | 0.618 | 0.527 | 0.797 | 0.404 | 0.573 | 0.707 | 0.601 | 0.525 | 0.563 | 0.84 | 1.13 | 0.377 |
| TYAVSYLPDMS [FLNC_Y1602_T1599A] | 0.867 | 0.559 | 0.785 | 0.428 | 0.576 | 0.575 | 0.763 | 0.589 | 0.732 | 0.924 | 1.6 | 0.963 | 0.811 | 0.809 | 0.95 | 0.674 |
| VAFLYYKSIGP [ADGRL4_Y302_V300L] | 1.21 | 0.78 | 0.776 | 0.531 | 1.09 | 0.589 | 1.54 | 0.45 | 0.625 | 1.44 | 0.389 | 1.43 | 0.392 | 0.771 | 0.633 | 0.341 |
| VASMFYTLVIP [OR8K3_Y277_I275M] | 1.96 | 1.13 | 0.82 | 2.79 | 2.37 | 3.5 | 1.14 | 0.661 | 0.667 | 1.51 | 5.7 | 0.691 | 1.38 | 1.22 | 1.13 | 0.783 |
